Test results reported in publication PMC10976588.

B1: N-acyl sphingosine amidohydrolase 2 (Asah2): Asah2-N444Q (protein)
parent chain: MAKRTFSTLEAFLIFLLVIMTVITVALLTLLFVTSGTIENHKDSGNHWFSTTLGSTTTQPPPITQTPNFPSFRNFSGYYIGVGRADCTGQVSDINLMGYGKNGQNARGLLTRLFSRAFILADPDGSNRMAFVSVELCMISQRLRLEVLKRLESKYGSLYRRDNVILSAIHTHSGPAGFFQYTLYILASEGFSNRTFQYIVSGIMKSIDIAHTNLKPGKIFINKGNVANVQINRSPSSYLLNPQSERARYSSNTDKEMLVLKLVDLNGEDLGLISWFAIHPVSMNNSNHFVNSDNMGYAAYLFEQEKNKGYLPGQGPFVAGFASSNLGDVSPNILGPHCVNTGESCDNDKSTCPNGGPSMCMASGPGQDMFESTHIIGRIIYQKAKELYASASQEVTGPVLAAHQWVNMTDVSVQLNATHTVKTCKPALGYSFAAGTIDGVSGLNITQGTTEGDPFWDTLRDQLLGKPSEEIVECQKPKPILLHSGELTIPHPWQPDIVDVQIVTVGSLAIAAIPGELTTMSGRRFREAIKKEFALYGMKDMTVVIAGLSNVYTHYITTYEEYQAQRYEAASTIYGPHTLSAYIQLFRDLAKAIATDTVANMSSGPEPPFFKNLIASLIPNIADRAPIGKHFGDVLQPAKPEYRVGEVVEVIFVGANPKNSAENQTHQTFLTVEKYEDSVADWQIMYNDASWETRFYWHKGILGLSNATIYWHIPDTAYPGIYRIRYFGHNRKQELLKPAVILAFEGISSPFEVVTT
B2: N-acyl sphingosine amidohydrolase 2 (Asah2): Fut2ΔISC (protein)
parent chain: B1 parent chain
B3: basigin (Bsg): Bsg-N306Q (protein)
parent chain: MAAALLLALAFTLLSGQGACAAAGFLKAPLSQERWAGGSVVLHCEAVGSPIPEIQWWFEGNAPNDSCSQLWDGARLDRVHIHAAYRQHAASSLSVDGLTAEDTGTYECRASSDPDRNHLTRPPRVKWVRAQASVVVLEPGTIQTSVQEVNSKTQLTCSLNSSGVDIVGHRWMRGGKVLQEDTLPDLHTKYIVDADDRSGEYSCIFLPEPVGRSEINVEGPPRIKVGKKSEHSSEGELAKLVCKSDASYPPITDWFWFKTSDTGEEEAITNSTEANGKYVVVSTPEKSQLTISNLDVNVDPGTYVCNATNAQGTTRETISLRVRSRMAALWPFLGIVAEVLVLVTIIFIYEKRRKPDQTLDEDDPGAAPLKGSGTHMNDKDKNVRQRNAT
B4: basigin (Bsg): Fut2ΔISC (protein)
parent chain: B3 parent chain
B5: Niemann–Pick type C intracellular cholesterol transporter 1 (Npc1): Npc1-N961Q (protein)
parent chain: MGAHHPALGLLLLLLCPAQVFSQSCVWYGECGIATGDKRYNCKYSGPPKPLPKDGYDLVQELCPGLFFDNVSLCCDIQQLQTLKSNLQLPLQFLSRCPSCFYNLMTLFCELTCSPHQSQFLNVTATEDYFDPKTQENKTNVKELEYFVGQSFANAMYNACRDVEAPSSNEKALGLLCGRDARACNATNWIEYMFNKDNGQAPFTIIPVFSDLSILGMEPMRNATKGCNESVDEVTGPCSCQDCSIVCGPKPQPPPPPMPWRIWGLDAMYVIMWVTYVAFLFVFFGALLAVWCHRRRYFVSEYTPIDSNIAFSVNSSDKGEASCCDPLGAAFDDCLRRMFTKWGAFCVRNPTCIIFFSLAFITVCSSGLVFVQVTTNPVELWSAPHSQARLEKEYFDKHFGPFFRTEQLIIQAPNTSVHIYEPYPAGADVPFGPPLNKEILHQVLDLQIAIESITASYNNETVTLQDICVAPLSPYNKNCTIMSVLNYFQNSHAVLDSQVGDDFYIYADYHTHFLYCVRAPASLNDTSLLHGPCLGTFGGPVFPWLVLGGYDDQNYNNATALVITFPVNNYYNDTERLQRAWAWEKEFISFVKNYKNPNLTISFTAERSIEDELNRESNSDVFTVIISYVVMFLYISLALGHIQSCSRLLVDSKISLGIAGILIVLSSVACSLGIFSYMGMPLTLIVIEVIPFLVLAVGVDNIFILVQTYQRDERLQEETLDQQLGRILGEVAPTMFLSSFSETSAFFFGALSSMPAVHTFSLFAGMAVLIDFLLQITCFVSLLGLDIKRQEKNHLDILCCVRGADDGQGSHASESYLFRFFKNYFAPLLLKDWLRPIVVAVFVGVLSFSVAVVNKVDIGLDQSLSMPNDSYVIDYFKSLAQYLHSGPPVYFVLEEGYNYSSRKGQNMVCGGMGCDNDSLVQQIFNAAELDTYTRVGFAPSSWIDDYFDWVSPQSSCCRLYNVTHQFCNASVMDPTCVRCRPLTPEGKQRPQGKEFMKFLPMFLSDNPNPKCGKGGHAAYGSAVNIVGDDTYIGATYFMTYHTILKTSADYTDAMKKARLIASNITETMRSKGSDYRVFPYSVFYVFYEQYLTIIDDTIFNLSVSLGSIFLVTLVVLGCELWSAVIMCITIAMILVNMFGVMWLWGISLNAVSLVNLVMSCGISVEFCSHITRAFTMSTKGSRVSRAEEALAHMGSSVFSGITLTKFGGIVVLAFAKSQIFEIFYFRMYLAMVLLGATHGLIFLPVLLSYIGPSVNKAKRHTTYERYRGTERERLLNF
B6: Niemann–Pick type C intracellular cholesterol transporter 1 (Npc1): Fut2ΔISC (protein)
parent chain: B5 parent chain

Assays:
[1] = MitoSOX staining in organoids; settings: glycan lost; control: WT organoids
[2] = complex I, III, IV, V activity kits; settings: glycan lost; control: WT organoids
[3] = JC-1 staining in organoids; settings: glycan lost; control: WT organoids
[4] = Western blot, whole-cell lysate; settings: glycan changed form; control: WT crypts
[5] = Western blot of lysosome fractions after CCCP; settings: glycan lost; control: WT organoids
[6] = Western blot of Pink1, pS65-Ub, whole-cell lysate; settings: glycan lost; control: WT organoids

Row | Protein | other: mitochondrial ROS level [1] | other: mitochondrial membrane potential [3] | expression_or_secretion [4] | also measured
1 | B1 | increases | decreases | – | other: respiratory chain complex activity [2]: decreases
2 | B2 | – | – | no change | –
3 | B3 | no change | no change | – | –
4 | B4 | – | – | no change | –
5 | B5 | increases | decreases | – | other: mitophagy, delivery of mitochondrial proteins to lysosomes [5]: decreases; other: mitophagy activation by CCCP [6]: no change
6 | B6 | – | – | no change | –
